T1: Succinyl-βALPF-doxorubicin
T1 chain: ALPF

T2: N-succinyl-beta-alanyl-L-leucyl-L-alanyl-L-leucyl-doxorubicin
T2 chain: ALAL

T3: PhAc-ALAF-doxorubicin
T3 chain: ALAF

T4: PhAc-DLGP-doxorubicin
T4 chain: DLGP

T5: LGP-Dox
T5 chain: LGP

T6: PhAc-KLGP-doxorubicin
T6 chain: KLGP

T7: PhAc-ALGP-doxorubicin
T7 chain: ALGP

T8: PhAc-ALPF-doxorubicin
T8 chain: ALPF

T9: PhAc-TSGP-doxorubicin
T9 chain: TSGP

T10: PhAc-ALAL-doxorubicin
T10 chain: ALAL

T11: PhAc-AIGP-doxorubicin
T11 chain: AIGP

T12: PhAc-GPGP-doxorubicin
T12 chain: GPGP

T13: NH2-Gly-Pro-Doxorubicin
T13 chain: GP


Key:
[1] = biological target: T1, Succinyl-βALPF-doxorubicin
[2] = biological target: T2, N-succinyl-beta-alanyl-L-leucyl-L-alanyl …
PhAc-ALAF-doxorubicin = biological target: T3, PhAc-ALAF-doxorubicin
PhAc-DLGP-doxorubicin = biological target: T4, PhAc-DLGP-doxorubicin
LGP-Dox = biological target: T5, LGP-Dox
PhAc-KLGP-doxorubicin = biological target: T6, PhAc-KLGP-doxorubicin
PhAc-ALGP-doxorubicin = biological target: T7, PhAc-ALGP-doxorubicin
PhAc-ALPF-doxorubicin = biological target: T8, PhAc-ALPF-doxorubicin
PhAc-TSGP-doxorubicin = biological target: T9, PhAc-TSGP-doxorubicin
PhAc-ALAL-doxorubicin = biological target: T10, PhAc-ALAL-doxorubicin
PhAc-AIGP-doxorubicin = biological target: T11, PhAc-AIGP-doxorubicin
PhAc-GPGP-doxorubicin = biological target: T12, PhAc-GPGP-doxorubicin
NH2-Gly-Pro-Doxorubicin = biological target: T13, NH2-Gly-Pro-Doxorubicin

| Protein | cleavage by purified CD10 10 nM (grade; * = less than 5% of metabolites detected) [1] | cleavage by purified CD10 10 nM (grade) [2] | cleavage by purified CD10 10 nM (grade) (PhAc-ALAF-doxorubicin) | cleavage by purified CD10 10 nM (grade) (PhAc-DLGP-doxorubicin) | cleavage by purified CD10 10 nM (grade) (LGP-Dox) | cleavage by purified CD10 10 nM (grade; * = less than 5% of metabolites detected) (PhAc-KLGP-doxorubicin) | cleavage by purified CD10 10 nM (grade) (PhAc-ALGP-doxorubicin) | cleavage by purified CD10 10 nM (grade) (PhAc-ALPF-doxorubicin) | cleavage by purified CD10 10 nM (grade) (PhAc-TSGP-doxorubicin) | cleavage by purified CD10 10 nM (grade; * = less than 5% of metabolites detected) (PhAc-ALAL-doxorubicin) | cleavage by purified CD10 10 nM (grade) (PhAc-AIGP-doxorubicin) | cleavage by purified CD10 10 nM (grade) (PhAc-GPGP-doxorubicin) | hydrolysis by purified CD26 [2] | conversion to Dox after 3 h incubation at 37° C. with purified CD26 (NH2-Gly-Pro-Doxorubicin) | hydrolysis by purified CD26 (LGP-Dox) | hydrolysis by purified CD26 (PhAc-ALGP-doxorubicin) |
| --- | --- | --- | --- | --- | --- | --- | --- | --- | --- | --- | --- | --- | --- | --- | --- | --- |
| CD10 (recombinant human neprilysin, R&D systems, Ref 1182-ZN) (protein) DDGICKSSDCIKSAARLIQNMDATTEPCTDFFKYACGGWLKRNVIPETSSRYGNFDILRDELEVVLKDVLQEPKTEDIVAVQKAKALYRSCINESAIDSRGGEPLLKLLPDIYGWPVATENWEQKYGASWTAEKAIAQLNSKYGKKVLINLFVGTDDKNSVNHVIHIDQPRLGLPSRDYYECTGIYKEACTAYVDFMISVARLIRQEERLPIDENQLALEMNKVMELEKEIANATAKPEDRNDPMLLYNKMTLAQIQNNFSLEINGKPFSWLNFTNEIMSTVNISITNEEDVVVYAPEYLTKLKPILTKYSARDLQNLMSWRFIMDLVSSLSRTYKESRNAFRKALYGTTSETATWRRCANYVNGNMENAVGRLYVEAAFAGESKHVVEDLIAQIREVFIQTLDDLTWMDAETKKRAEEKALAIKERIGYPDDIVSNDNKLNNEYLELNYKEDEYFENIIQNLKFSQSKQLKKLREKVDKDEWISGAAVVNAFYSSGRNQIVFPAGILQPPFFSAQQSNSLNYGGIGMVIGHEITHGFDDNGRNFNKDGDLVDWWTQQSASNFKEQSQCMVYQYGNFSWDLAGGQHLNGINTLGENIADNGGLGQAYRAYQNYIKKNGEEKLLPGLDLNHKQLFFLNFAQVWCGTYRPEYAVNSIKTDVHSPGNFRIIGTLQNSAEFSEAFHCRKNSYMNPEKKCRVW | -* | + | + | - | - | -* | + | - | - | -* | + | - |  |  |  |  |
| CD26 (protein) SRKTYTLTDYLKNTYRLKLYSLRWISDHEYLYKQENNILVFNAEYGNSSVFLENSTFDEFGHSINDYSISPDGQFILLEYNYVKQWRHSYTASYDIYDLNKRQLITEERIPNNTQWVTWSPVGHKLAYVWNNDIYVKIEPNLPSYRITWTGKEDIIYNGITDWVYEEEVFSAYSALWWSPNGTFLAYAQFNDTEVPLIEYSFYSDESLQYPKTVRVPYPKAGAVNPTVKFFVVNTDSLSSVTNATSIQITAPASMLIGDHYLCDVTWATQERISLQWLRRIQNYSVMDICDYDESSGRWNCLVARQHIEMSTTGWVGRFRPSEPHFTLDGNSFYKIISNEEGYRHICYFQIDKKDCTFITKGTWEVIGIEALTSDYLYYISNEYKGMPGGRNLYKIQLSDYTKVTCLSCELNPERCQYYSVSFSKEAKYYQLRCSGPGLPLYTLHSSVNDKGLRVLEDNSALDKMLQNVQMPSKKLDFIILNETKFWYQMILPPHFDKSKKYPLLLDVYAGPCSQKADTVFRLNWATYLASTENIIVASFDGRGSGYQGDKIMHAINRRLGTFEVEDQIEAARQFSKMGFVDNKRIAIWGWSYGGYVTSMVLGSGSGVFKCGIAVAPVSRWEYYDSVYTERYMGLPTPEDNLDHYRNSTVMSRAENFKQVEYLLIHGTADDNVHFQQSAQISKALVDVGVDFQAMWYTDEDHGIASSTAHQHIYTHMSHFIKQCFSLP |  |  |  |  |  |  |  |  |  |  |  |  | Neither CD26 nor FAP hydrolized either PhAc-ALGP-Dox, Suc-βALAL-Dox or LGP-Dox | 97% conversion to Dox after 3 h incubation at 37 °C | Neither CD26 nor FAP hydrolized either PhAc-ALGP-Dox, Suc-βALAL-Dox or LGP-Dox | Neither CD26 nor FAP hydrolized either PhAc-ALGP-Dox, Suc-βALAL-Dox or LGP-Dox |
